Data from the nanobody polyreactivity screen of Harvey et al. (2022).

Assay: yeast display, Sf9 membrane polyspecificity reagent, FACS + sequencing; frameworks hold sequencing errors
In short: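 Sorting gates, low and high (top ~1%), were placed on anti-HA fluorescence to track expression and on streptavidin fluorescence to track reagent binding. A clone's polyreactivity label is taken from the gate it came out of. The reagent was 10% biotinylated, detergent-solubilized Sf9 membrane, applied for 1 hour at 4 °C to galactose-induced yeast display cells.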

Sequence	polyreactivity (PSR sort gate)
QVQLVESGGGLVQAGGSLRLSCAASGSIFISYAKGWYRQAPGKERELVAAINYSGGSTYYADSVKGRFTISRDNAKNTVYLQMNSLKPEDTAVYYCAKRSTYRYYGYKLRDYWGQVTQVTVSS	low polyreactivity
QVQLVESGGGLVQAGGSLRLSCAASGRIFLYYAMGWYRQAPGKERELVAAISRRGASTYYADSVKGRFTITRDNAKNNVYLQMHSLKPEDTAVYYCGTVPGKSGDYWGQGTQLTVSS	high polyreactivity
QVQLVESGGGLVQAGGSLRLSCAASGRIYDYYAMGWYRQAPGKERELVAAISTSGGSTYYADSVKGRFTISRDHAKNTVYLQMKSLKPEDTAVYYCAKDITVTYPGLDYDYWGQVTQVTVSS	low polyreactivity
QVQLVESGGGLVQAGGSLRLSCAASGSIFPPYAMGWYRPAPGKERELVAAINSGGSTNYADSVKGRFTISRDNAKNTVYLQMNSLIPEDTAVYYCNVDESYDWRTRKYDSWGQVTQVTVSS	low polyreactivity
QVQLVESGGGLVQAGGSLRLSCAASGGTFRANAMGWYRQAPGKERELVAAISFRGGTTYYADSVKGRFTISRDNAKNTVYLQMNSLKPEDTAVYYCAARFLYYFRGKGYDYWGQGTQVTVSS	high polyreactivity
QVQLVESGGGLVQAGRSLRLSCAASGSTLLWNAMGWYRQAPGKERELVAVISWSGGSTYYGDSVKGRFTISRDNAKNTVYLQMNSLKPEDTAVYYCAHDYDGYVWDTEYDYWGQGTQVTVSS	low polyreactivity
QVQLVESGGGLVQAGGSLRLSCAASGLTLRNYAKGWYREAPGKDRELVAAITTGGGRTFYADSVKGRFTISRDKAKNTVYLETNSLNPEDTAVYYCAAERAILSSDKQSLWRFDYWGQGTQVTVSS	low polyreactivity
QVQLQESGGGLVQAGGSLRLSCAASGNIFLGDTMGWYRQAPGKEREFVAAIARGGNPYYADSVKGRFTISRNNANNTVYLQKNSLKTEDTAVHYCAVQRSHASDYNYWCQGTQVTVSS	low polyreactivity
QVQLVESGGGLVHAGGSLRLSCAASGSIFGRYVMGWYRQAPGKERELVAAITRSGGSTYYADSVKGRFTISRDNAKNTVYLQMNSLKPEDTAVYYCNADVNFIDDDYWGHGTQVTVSS	low polyreactivity
QVQLVESGGGLVQAGGSLRLSCAASGYTLRIYAMGWYRQAPGKEREMVAAISRSGGRTFYADSVKGRFTISRDNAKNTVYLQMNSLKPEDTAVYYCAADPRSYDTGRMDYWGQGTQVTVSS	high polyreactivity
QVQLVESGGGLVQAGGSLRLSCAASGLIFPKNAMGWYRQAPGKERELVAAISSSDSSTYADSVKGRFTISRDNAKNTVYLQMNSLKPEDTAVYYCAAASYNWLDWVTREYWGQGTQVTVSS	low polyreactivity
QVQLVESGGGLVQAGGSLRLSCAASGITFEVYAMGWYRQAPGKERELVAVITSVGSTNYADSVKGRFTISRDNAKNTVYLQMNSLKPEDTAVYFCAAEKWTVRRFNPYTYYRFDYWGHGTQVTVSS	low polyreactivity
HVQLVESGGGLVQEGGRLRLSCAASGFIFQVNAMGWYRQAPGKERELVAAITGSDGSTSYADSVKGRFTISRDNAKNNVYLQMNSLKPEDTAVYYCAKEESVSTHYYHLIRFDQWGQGTQVTVSS	low polyreactivity
QVQLVESGGGLVQAGGSLRLSCAASGRTFTRNAMGWYRQAPGKERELVAVITSSGRTNYADSVKGRFTISRDNAKNTVYLQMNSLKPEDTAVYYCNKVSARYPYPLYDYWGQGTQVTVSS	high polyreactivity
QVQLVESGGGLVQAGGSLRLSCAASGPTYWPYAMGWYRQAPGKERELVAAITYSGGGTYYADSVKGRFTISRDNAKNTVYLQMNSLKPEDTAVYYCAKYNYPGRPFDYWGQGTQVTVSS	low polyreactivity
QVQLVESGGGLVQAGGSLRLSCAASGYTFQKYAMGWYRQAPGKERESVAAITRSGTRTYYADSVKGRFTISRDNAKNTVYLQMNSLKPEDTAVYYCAAETYYSIYDYWGQGTQVTVSS	high polyreactivity

Sequence	polyreactivity (PSR sort gate)
QVQLEESVGGLVQAGVSLRLSCAASGRFFYFYAMGWYRQAPAKERELVASISSGGITIYADSVKGRFTISRDNSKYTVYLQMYSLKREDTAVYYCNAGYASGKYSGVYLYGYLGQGTQVTVSS	low polyreactivity
QVQLVESGGGLVQAGGSLRLSCAASGRIFTVYAMGWYRQAPGQERELVAAISRGGSTYADSVKGRFTISRDNAKISVYLQMNSLKPEDTAVYYCAAVNFRKGEDYWGQGTQVTVSS	high polyreactivity
QVLLVESGGGLVQAGGSLRLSCAASGFIFYLNGMGWYRQAPGKERELVAAISGRGGRTYYADSVKGRFTISRDNAKNTVYLQMNSLIPEDTAVYYCAAQYVPSRYGYWGQGTQVTVSS	high polyreactivity
QVQLVESGVGLVQAGGSLRLSCAASGSTFITYAMGWYRQAPGKERELVAAISTGGSTYYADSVKGRFTISRDNAKNTVYLQMNSLKPEDTAVYYCNAYSSSRGSTLQYSLQYDYWGQGTQVTVSS	low polyreactivity
QVQLVESGVGLVQAGGSLRLSCAASGRTFYVYAMGWYRQAPGKERELVAAISLGGGSTYYADSVKGRFTNSRDNGKNTVYLQMNSLKPEDTAVYYCAADITRYRLGRDYWGQATQVTVSS	low polyreactivity
QVQLVESGGGLVQAGCSLRLSWAASGRIIKYNAMGWYRQAPGKERELVAVITSGGSTYYAYSVKGRFTISRDNAKNTVYLQMNSLKPEDTAVYYCAAGFGDGPGNGYYSRYSWDDDYWGQGTQVTVSS	low polyreactivity
QVLLQESGGGLVQAGGSLRLGCAASGTISPAYYMGRYHQAPGQEREFVAAITYGTNTYYADSVKGRFTISRDNAKNTVYLQMNSLKPEDTAVYYCSATAGYNGAHDYWGQGTQVTVSS	low polyreactivity
QVQLVESGGGLVQAGGSLRLSCAASGSIFTANAMGWYRQAPGKERELVAAISRSGGNTYYADSVKGRFTISRDNAKNTVYLQMNSLKPEDTAVYYCAARQKGTGNYWGQGTQVTVSS	high polyreactivity
QVQLVESGGGLVQAGGSLRLSCAASGRIFGAYAMGWYRQAPGKERELVAAITSAGSTHYADSVKGRFTISRDNAKNTVYLQMNCLKPQDTAVYYCAADRYPWPLQYVEYDSDYWGQGTQVTVSS	low polyreactivity
QVQLVESGGGLVQAGGSLRLSCAASGRTFYRNTMGWYRQAPGKERELVAAITRSGGSTYYADSVKGRVTISRDNAKNTVYLQMNSLKPEDTAVYYCAASRTYYAPYGYWGQGTQVTVSS	high polyreactivity
QVQLVESGGGLVQAGGSLRLSCAASGSTFDLNAMGWYRQAPGKERELVARITSSTGRTFYADSVKGRFTISRDNAKNTVYLQMNSLKPEDTAVYYCNTVGHGYSPPVNRSKMDYWGQGTQVTVSS	low polyreactivity
QVQLVESGGGLVQAGGSLRLSCAASGIFSRYAMGWYIQAPGKERELVAAISSGDSTNYADSVKGRFTISRDNAKNTVYLQMNSLKPEDTAVYYCATERSHLATGQGYYYVQTFYYWGQGTQVTVSS	low polyreactivity
QGQLVESGGCLVQAGGSLRLSCAASGRTFYRNAMCLYRQSPGKERELVAVISSSGVRTYYADSVKGRFTISRDNAKNTVYLQMNSLKPEDTAVYYCAADSNSYYRGFDYWGQGTQVTVSS	high polyreactivity
KVQLVESGGGLVQAGGSLRLSSADSGRIYVGYAIVWYRQEPGKEMEMVAGISRSGDSTYYADSVKGRFTISRDNAKNTVYLQMNSLKPEDTAVYYCAARINYWGYYYWGQGSQVTVSS	high polyreactivity
QVQLVESGGGLVQAGGSLRLSCAASGRIFRVYAMGWYRPAPGKERELVATIRRGSSTYYADSVKGRFTISRDNAKNTVYLQMNSLKPEDTAVYYCADRSSRRGPISEGDYWGQGTQVTVSS	high polyreactivity
